Holding throughout (experiment): crystal structure
For data set [1], the target named is T1, ALKBH2-dN55 crosslinking mutant (Homo sapiens, UniProt Q6NS38 56-261, C67S;C165S;G169C;C192S).
T1 sequence: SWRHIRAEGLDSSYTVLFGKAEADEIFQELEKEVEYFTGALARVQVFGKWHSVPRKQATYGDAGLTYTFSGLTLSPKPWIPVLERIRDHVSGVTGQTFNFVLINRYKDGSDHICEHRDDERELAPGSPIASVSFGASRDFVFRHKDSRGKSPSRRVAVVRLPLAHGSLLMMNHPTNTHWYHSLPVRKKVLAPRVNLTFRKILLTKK

Data set [2] addresses T1, ALKBH2-dN55 crosslinking mutant. The source holds these as a separate data set.
Data set [3] has the same target. This is another data set of the same source.
Data set [4] has the same target. The source holds these as a separate data set.

Like-named read-outs stand apart in the source and are kept apart here.

B1: CI DNA (dsDNA)
DNA 1: ATGTATCACTGCG
DNA 2: TCGCAGTGATACA
modifications: C* (position 9 of strand 1): disulfide crosslinking cytosine; strand 2 position 8 is inosine (written G)
On to B1, for which the binding result in data set [1] is “binds”.

B2: CG DNA (dsDNA)
DNA 1: CTGTCATCACTGCG
DNA 2: TCGCAGTGATGACA
modifications: C* (position 10 of strand 1): disulfide crosslinking cytosine
For the molecule B2, the binding result in data set [2] is given as “binds”.

B3: eA DNA (dsDNA)
DNA 1: CTGTCAAACTGCG
DNA 2: TCGCAGTTAGACA
modifications: 1,N6-ethenoadenine at position 7 of strand 1 (written A); no C* printed in this strand
On to B3, for which the binding result in data set [3] is “binds”.

B4: 3-meC DNA (dsDNA)
DNA 1: CTGTCTCACTGCG
DNA 2: TCGCAGTGAGACA
modifications: 3-methylcytosine at position 7 of strand 1 (written C); C* (position 9): disulfide crosslinking cytosine
Regarding B4, in data set [3], the binding result was “binds”.

B5: AT DNA (dsDNA)
DNA 1: ATGTATAACTGCG
DNA 2: TCGCAGTTATACA
modifications: C* (position 9 of strand 1): disulfide crosslinking cytosine
On to B5, for which the binding result in data set [4] was “binds”.
